Numbering of substitutions follows the chain as printed. Read-outs that look alike come from different tables or passages of the source. One block for each binder: values may come before it.
Assays:
[1] = biological target: Vδ1 TCR on human Vδ1-positive γδ T cells (human), A0A1B0; settings: scale: nM
[2] = biological target: Vδ1 TCR on human Vδ1-positive γδ T cells (human), A0A1B0
[3] = biological target: Vδ1 TCR on human Vδ1-positive γδ T cells (human), A0A1B0; remark: listed apart in the source
[4] = biological target: Vδ1 TCR on human Vδ1-positive γδ T cells (human), A0A1B0; remark: listed apart in the source
[5] = biological target: Vδ1 TCR on human Vδ1-positive γδ T cells (human), A0A1B0; remark: listed apart in the source

Vδ1 TCR on human Vδ1-positive γδ T cells (human), A0A1B0, sequence (A0A1B0 entry or part of it mutant limits assumed): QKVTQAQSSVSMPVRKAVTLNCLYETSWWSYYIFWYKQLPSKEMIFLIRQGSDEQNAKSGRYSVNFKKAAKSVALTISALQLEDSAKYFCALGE

IC50 of Vδ1 TCR downregulation (% MFI of anti-Vδ1 staining after 2 h, two γδ cell donors) [1]: 22.4
B1: ADT1-7 (parental) (antibody, IgG1, V domains shown)
VH: QVQLVESGGGLVKPGGSLRLSCAASGFTFSDYYMSWIRQAPGKGLEWVSYISSSGSTIYYADSVKGRFTISRDNAKNSLYLQMNSLRAEDTAVYYCARVDYADAFDIWGQGTLVTVSS
VL: ASDIQMTQSPSSLSASVGDRVTIACRAGQSIGTYLNWYQQKPGKAPKLLIYVASSLQSGVPSRFSGSGSGTEFTLTISSLQPEDFATYYCQQSYSTLLTFGRGTKVEIK

Vδ1 TCR down-regulation (A375 co-culture): % change (at EC100 saturation) [2]: 96.8%
Vδ1 TCR down-regulation (A375 co-culture): EC50 [2]: 0.00095 nM
Vδ1 TCR down-regulation (A375 co-culture): % change (at saturation) [3]: 102%
Vδ1 TCR down-regulation (A375 co-culture): EC50 [3]: 0.00142 nM
Vδ1 TCR down-regulation (A375 co-culture): EC95 [3]: 0.0379 nM
B2: ADT1-4-2/ADT3-2 (bispecific antibody)
heavy: EVQLQQSGPGLVKPSQTLSLTCAISGDSVSSKSAAWNWIRQSPSRGLEWLGRTYYRSKWSTDYAASVKSRITINPDTSKNQLSLQLNSVTPEDTAVYYCARTWVGYVDRWGQGTLVTVSSASTKGPSVFPLAPSSKSTSGGTAALGCLVKDYFPEPVTVSWNSGALTSGVHTFPAVLQSSGLYSLSSVVTVPSSSLGTQTYICNVNHKPSNTKVDKKVEPKSCDKTHTCPPCPAPELAGAPSVFLFPPKPKDTLMISRTPEVTCVVVDVSHEDPEVKFNWYVDGVEVHNAKTKPREEQYNSTYRVVSVLTVLHQDWLNGKEYKCKVSNKALPAPIEKTISKAKGQPREPQVYTLPPSRDELEEGPVSLTCLVKGFYPSDIAVEWESTYGPENNYKTTPPVLDSDGSFFLYSKLTVSYWRWYKGNVFSCSVMHEALHNHYTQKSLSLSPG
light: DIQMTQSPPALSASVGDRVTITCRASQDINDWLAWYQHKPGKAPKLLIYDASSLESGVPLRFSGSGSGTEFTLTISSLQPDDFATYYCQQKYSAPQVTFGQGTRLEIKRTVAAPSVFIFPPSDEQLKSGTASVVCLLNNFYPREAKVQWKVDNALQSGNSQESVTEQDSKDSTYSLSSTLTLSKADYEKHKVYACEVTHQGLSSPVTKSFNRGEC

Vδ1 TCR down-regulation (A375 co-culture): % change (at saturation) [4]: 46%
Vδ1 TCR down-regulation (A375 co-culture): EC95 [4]: 0.101 nM
Vδ1 TCR down-regulation (A431 co-culture): % change (at saturation) [4]: 81.1%
Vδ1 TCR down-regulation (A431 co-culture): EC95 [4]: 0.0079 nM
Vδ1 TCR down-regulation (A375 co-culture): EC50 (read off the curve) [5]: 0.01 nM
B3: ADT1-4-2/ADT3-1 (bispecific antibody)
heavy: B2 heavy with L361T, E362D, E363D
light: B2 light

Vδ1 TCR down-regulation (A375 co-culture): % change (at saturation) [4]: 34%
Vδ1 TCR down-regulation (A375 co-culture): EC95 [4]: 5.9 nM
Vδ1 TCR down-regulation (A431 co-culture): % change (at saturation) [4]: 80.3%
Vδ1 TCR down-regulation (A431 co-culture): EC95 [4]: 0.0263 nM
B4: ADT1-4/ADT3-1 (bispecific antibody, human IgG1)
heavy: B2 heavy with E1Q, V104S, R109V, L361T, E362D, E363D
light: ASDIQMTQSPPALSASVGDRVTITCRASQDINDWLAWYQHKPGKAPKLLIYDASSLESGVPSRFSGSGSGTEFTLTISSLQPDDFATYYCQQSYSTPQVTFGQGTRLEIKRTAAAPSVFIFPPSDEQLKSGTASVVCLLNNFYPREAKVQWKVDNALQSGNSQESVTEQDSKDSTYSLSSTLTLSKADYEKHKLYACEVTHQGLSSPVTKSFNRGEC
